Data reported in patent US10260060B2, “Genetically modified phenylpyruvate decarboxylase, processes to prepare, and uses thereof” (Dow Global Technologies LLC, priority 2014, dated 2019).
Where a chain is given by its changes, count along the chain named. Names and notes keep the numbering of the source.

What was measured:
[1] = tested on: Azospirillum brasilense phenylpyruvate decarboxylase (AbPPDC); details: Spaepen et al., J. Bacteriol., 2007; cited from earlier work
[2] = substrate: CCCCCCC(=O)C(=O)O; experiment: HTP AbPPDC coupled enzyme assay (ADH6/NADPH), 2-ketoacid decarboxylation kinetics, F532V; assay type: biochemical, Azospirillum brasilense; details: other: pH 6.8, 30° C, 2-ketoacid 0 to 4 mM, Hill equation, mean ± standard error
Procedure: (§1) The evaluation of the AbPPDC variants is performed in two steps using the high-throughput enzyme assay described hereinbelow. Initially, all the variants are tested for activity against a single high concentration (2 mM) of 2-KH and 2-KN (as shown in Table 1). Following the initial evaluation, detailed kinetic analysis is performed on a select number of variants to determine the maximal rate (kcat), substrate concentration yielding half maximal rate (K0.5, equivalent of KM for enzymes following Michaelis-Menten kinetics), and the catalytic efficiency of the enzyme (kcat/K0.5) against 2-KO and 2-KN (as shown in Table 2). AbPPDC variants, having higher specificity (higher kcat/K0.5) for 2-KN, will be efficient in producing octanal and chemicals derived from it inside the cells.
(§2) To evaluate the substrate specificity of the wild type AbPPDC and its variants listed in Table 1, genes of all the proteins are expressed in E. coli cells separately and the protein products are isolated from the cells. The gene sequence of the Azospirillum brasilense phenylpyruvate decarboxylase (GenBank: Accession no. L26240) is downloaded from the NCBI database. Codons of 13 additional amino acids that include six (6) histidines (his) are added upstream of the Met-1 codon of the AbPPDC gene sequence. Such a modification allows expression of a Histidine-tagged AbPPDC having 13 additional amino acids on the N-terminus. The additional amino acids are attached as an aid for purifying the protein in a single step using Ni-NTA chromatography. The entire AbPPDC sequence with 13 additional amino acids (SEQ ID 2) is chemically synthesized and then cloned into the pRSFDuet-1 vector (EMD Biosciences) downstream of the T7 polymerase promoter by Synthetic Genomics, Inc. (San Diego, Calif.). The final vector is sequenced by Synthetic Genomics, Inc. before shipping.
(§3) Genes of the AbPPDC variants listed in Table 1 are either chemically synthesized or generated using New England Biolab's Q5 Site-directed Mutagenesis Kit (cat. no. E0554S) and cloned into the pRSFDuet-1 vector. The pRSFDuet-1 vector containing AbPPDC or the AbPPDC variant gene is transformed into E. coli, AbPPDC or its variant, then expressed and eventually purified, as described below.
(§4) A high-throughput AbPPDC coupled enzyme assay is developed for evaluating the substrate specificity of AbPPDC variants. The assay involves reducing the aldehyde produced from AbPPDC mediated 2-ketoacid decarboxylation, using an alcohol dehydrogenase (ADH6, GenBank: Accession No. NP 014051.3). The initial velocities of the AbPPDC catalyzed reactions are determined from the rates of oxidation of reduced nicotinamide adenine dinucleotide phosphate (NADPH) occurring during the ADH6 catalyzed reduction of aldehyde.
(§5) The HTP screening assay involves incubating 2 mM 2-KH or 2 mM 2-KN with 0.5 mM thiamine diphosphate, 0.35 mM NADPH, 4.7 micrograms (μg) of yeast ADH6 (GenBank: Accession No. NP 014051.3) and 0.3 milligrams per milliliter (mg/mL) bovine serum albumin (BSA) in AbPPDC assay buffer (50 mM 3-(N-morpholino)propanesulfonic acid, pH 6.8, containing 2.5 mM magnesium chloride (MgCl2)) at 30° C. The reaction is started by addition at 30° C. of working enzyme stock containing from 0.5 μg to 3.5 μg of AbPPDC variant diluted in AbPPDC assay buffer containing 1 mg/mL BSA. The plate containing the 200 μL of reaction mixture is centrifuged at 2500×g for 15 sec and the absorbance change of the reaction mixture followed spectrophotometrically at 340 nm on a BioTek™ plate reader, pre-equilibrated at 30° C. Initial velocity of the enzyme reaction is calculated using the rate of NADPH consumption at 340 nm and the extinction coefficient of NADPH (6.22 mM^−1 cm^−1). The activity of all the variants is normalized with the amount of enzyme present in the reaction mixture and expressed as nanomoles per minute per milligram (nmol·min^−1·mg^−1). […]

[3] = substrate: CCCCCCCC(=O)C(=O)O; experiment: as above; assay type: biochemical, Azospirillum brasilense; details: other: pH 6.8, 30° C, 2-ketoacid 0 to 4 mM, Hill equation, mean ± standard error
Procedure: as §1, §2, §3, §4, §5

[4] = substrate: CCCCCCC(=O)C(=O)O; experiment: HTP AbPPDC coupled enzyme assay (ADH6/NADPH), 2-ketoacid decarboxylation kinetics, F532L; assay type: biochemical, Azospirillum brasilense; details: other: pH 6.8, 30° C, 2-ketoacid 0 to 4 mM, Hill equation, mean ± standard error
Procedure: as §1, §2, §3, §4, §5

[5] = substrate: CCCCCCCC(=O)C(=O)O; experiment: as above; assay type: biochemical, Azospirillum brasilense; details: other: pH 6.8, 30° C, 2-ketoacid 0 to 4 mM, Hill equation, mean ± standard error
Procedure: as §1, §2, §3, §4, §5

[6] = substrate: CCCCCCC(=O)C(=O)O; experiment: HTP AbPPDC coupled enzyme assay (ADH6/NADPH), 2-ketoacid decarboxylation kinetics, Q536G; assay type: biochemical, Azospirillum brasilense; details: other: pH 6.8, 30° C, 2-ketoacid 0 to 4 mM, Hill equation, mean ± standard error
Procedure: as §1, §2, §3, §4, §5

[7] = substrate: CCCCCCCC(=O)C(=O)O; experiment: as above; assay type: biochemical, Azospirillum brasilense; details: other: pH 6.8, 30° C, 2-ketoacid 0 to 4 mM, Hill equation, mean ± standard error
Procedure: as §1, §2, §3, §4, §5

[8] = substrate: CCCCCCC(=O)C(=O)O; experiment: HTP AbPPDC coupled enzyme assay (ADH6/NADPH), 2-ketoacid decarboxylation kinetics, Q536A; assay type: biochemical, Azospirillum brasilense; details: other: pH 6.8, 30° C, 2-ketoacid 0 to 4 mM, Hill equation, mean ± standard error
Procedure: as §1, §2, §3, §4, §5

[9] = substrate: CCCCCCCC(=O)C(=O)O; experiment: as above; assay type: biochemical, Azospirillum brasilense; details: other: pH 6.8, 30° C, 2-ketoacid 0 to 4 mM, Hill equation, mean ± standard error
Procedure: as §1, §2, §3, §4, §5

O=C(O)C(=O)Cc1ccccc1 [phenylpyruvic acid]
catalytic efficiency [1]: high catalytic efficiencies

B1: Azospirillum brasilense phenylpyruvate decarboxylase (AbPPDC) variant F532V, SEQ ID 28 (Azospirillum brasilense; F532V) (protein)
chain: MKLAEALLRALKDRGAQAMFGIPGDFALPFFKVAEETQILPLHTLSHEPAVGFAADAAARYSSTLGVAAVTYGAGAFNMVNAVAGAYAEKSPVVVISGAPGTTEGNAGLLLHHQGRTLDTQFQVFKEITVAQARLDDPAKAPAEIARVLGAARALSRPVYLEIPRNMVNAEVEPVGDDPAWPVDRDALAACADEVLAAMRSATSPVLMVCVEVRRYGLEAKVAELAQRLGVPVVTTFMGRGLLADAPTPPLGTYIGVAGDAEITRLVEESDGLFLLGAILSDTNFAVSQRKIDLRKTIHAFDRAVTLGYHTYADIPLAGLVDALLEGLPPSDRTTRGKEPHAYPTGLQADGEPIAPMDIARAVNDRVRAGQEPLLIAADMGDCLFTAMDMIDAGLMAPGYYAGMGFGVPAGIGAQCVSGGKRILTVVGDGAFQMTGWELGNCRRLGIDPIVILFNNASWEMLRTFQPESAFNDLDDWRFADMAAGMGGDGVRVRTRAELKAALDKAFATRGRFQLIEAMIPRGVLSDTLARVVQGQKRLHAAPRE
notes: made in house; host or cells: E. coli BL21(DE3)
K0.5 [2]: 2.0 ± 0.1 mM | kcat [2]: 0.163 ± 0.0033 s⁻¹ | kcat/Km [2]: 80 ± 3.3 M⁻¹ s⁻¹ | K0.5 [3]: 0.89 ± 0.15 mM | kcat [3]: 0.383 ± 0.033 s⁻¹ | kcat/Km [3]: 450 ± 83 M⁻¹ s⁻¹

B2: Azospirillum brasilense phenylpyruvate decarboxylase (AbPPDC) variant F532L, SEQ ID 30 (Azospirillum brasilense; F532L) (protein)
chain: B1 chain with V532L
notes: as for B1
K0.5 [4]: 1.6 ± 0.1 mM | kcat [4]: 0.217 ± 0.005 s⁻¹ | kcat/Km [4]: 137 ± 5 M⁻¹ s⁻¹ | K0.5 [5]: 0.94 ± 0.27 mM | kcat [5]: 0.5 ± 0.083 s⁻¹ | kcat/Km [5]: 583 ± 200 M⁻¹ s⁻¹

B3: Azospirillum brasilense phenylpyruvate decarboxylase (AbPPDC) variant Q536G, SEQ ID 32 (Azospirillum brasilense; Q536G) (protein)
chain: B1 chain with V532F, Q536G
notes: as for B1
K0.5 [6]: 1.9 ± 0.2 mM | kcat [6]: 0.183 ± 0.013 s⁻¹ | kcat/Km [6]: 96.7 ± 10 M⁻¹ s⁻¹ | K0.5 [7]: 0.76 ± 0.02 mM | kcat [7]: 0.35 ± 0 s⁻¹ | kcat/Km [7]: 467 ± 17 M⁻¹ s⁻¹

B4: Azospirillum brasilense phenylpyruvate decarboxylase (AbPPDC) variant Q536A, SEQ ID 34 (Azospirillum brasilense; Q536A) (protein)
chain: B1 chain with V532F, Q536A
notes: as for B1
K0.5 [8]: 0.72 ± 0.02 mM | kcat [8]: 0.333 ± 0.0033 s⁻¹ | kcat/Km [8]: 450 ± 17 M⁻¹ s⁻¹ | K0.5 [9]: 0.52 ± 0.03 mM | kcat [9]: 0.5 ± 0.017 s⁻¹ | kcat/Km [9]: 967 ± 67 M⁻¹ s⁻¹
